The target in this assay is AfMAT1-1-1_(78–235) (Aspergillus fumigatus). Kind of assay: SEC. In general terms: Size exclusion chromatography separates by hydrodynamic size, large species first.

Among the data in PMC8022922 are stoichiometry N values, retold here.

For “AfMAT1-1-1_(78–235) (domain or fragment)”, the stoichiometry N – broadly, a count of units in the complex or per binding partner – was found to be 2.
